Experimental data: publication PMC8646660 (EMBO Molecular Medicine, 2021)

Tests used:
[1] = target: T1, SARS-CoV-2 S receptor-binding domain (RBD), biotinylated (SARS-CoV-2, UniProt P0DTC2, biotin on the Avi tag (enzymatic, BirA)); assay: BLI; conditions: both partners purified
T1 construct: also called wild-type RBD; WT

[2] = target: T1, SARS-CoV-2 S receptor-binding domain …; assay: cell-based or functional assay

B1: scFD20 (single-chain variable fragment of FD20) (scFv, V domains shown)
VH: QVQLQQSGAEVKKPGSSVKVSCKASGGTFSSYAFSWVRQAPGQGLEWMGRIIPILGIANYAQKFQGRVTITADISTSTAYMALSSLRSEDTAVYYCAKVEVNIGMDDYYYYYGMDVWGQGTTVTVSS
VL: not shown
notes: also called scFv of FD20; scFv FD20; source: E. coli MC1061, periplasmic release, purified (Ni-NTA)
Kd [1]: 5.6 nM | neutralisation of SARS-CoV-2 pseudovirus particles (pp), IC50 [2]: 117 nM

B2: FD20 (IgG format) (antibody, V domains shown)
VH: QVQLQQSGAEVKKPGSSVKVSCKASGGTFSSYAFSWVRQAPGQGLEWMGRIIPILGIANYAQKFQGRVTITADISTSTAYMALSSLRSEDTAVYYCAKVEVNIGMDDYYYYYGMDVWGQGTTVTVSS
VL: not shown
microneutralisation of authentic SARS-CoV-2 hCoV-19/China/CAS-B001/2020, IC50 [2]: 5.2 nM
